Data from the domain aggregation screens of Martell et al. (2025).

Assay: soluble fraction after stress (log2 fold change); higher = more stays soluble; pooled small domains, quantitative proteomics
Settings: stress: 50 degC
In short: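 Quantitative proteomics served as the high-throughput read-out for pooled custom libraries of small protein domains. Each was stressed at 50°C. Aggregation propensity is expressed as the base-two log fold change in soluble protein after stress. A higher value means a larger share of the protein remains in solution.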

Sequence	soluble fraction (log2)
HMSKPILSFVDPEKDPSHYVKRYITEETYKDWFSEHFPDYTLYEGIGITQEEYRNIVNELTKP	-0.493
HMLKNYATPEQRAQLDMLKDKGIIGENELMQLGKYPSQDKASEVLENHADAVKMLDSDEISNRAEAIRSHD	0.134
HMQANLPFSELLADVDRGLISDVTIKGDQVSGHYTDGRTFNTFIPPEADLVRRLTEKNVRIAAVPD	-0.111
HMVSLPSPLAGKVVSLTVQAGQEVKEGDEIMVLEAMKMNTQVHAPSSGRILALRVQPGDQVEEGQTLVTMG	0.0826
HMVPTATVGENTSTLPVRQLPGGPVLVVLVRGDIVLPLPGHAFQNGDVWREISTVNGVIGWVPDEFLDY	-1.9
HMFGDQMQSYLSRLSQIDVDIIALKYGDNFTYREIGLILEMSEDSVRQRAVRARKKLETMIQKG	-3.1
HMGELYGTDQYKDGDAQDTNIGKLLEVNIDGKWQVATTGTSRFEFAGVMDDNGHKLIMISVLPEAKTV	-0.18
HMVWPETEAIVTEDFIGKKRSEVQQEGVIFEFFGEGDMVIDQLPRGGVTLNESGRVWIYLGEDTF	-0.423
HMGKMTSTLGVHIAAYRKEHGETVAQFASRSGVSVSSIRRIESGISDPSADLVWKISRHMGMTMDDLFKKM	-3.87
HMAIGDYYINASALNVRSGEGTNYRIIGALPQGQKVQVISENSGWSKINYNGQTGYIGTRYLSKTPV	-0.00322
HMQVEMVLSQEAHEWLLQRGFIPEYGAREMDRVIAAHLKPLLMREILFGTLKAGGKVRVQVENGALKLQP	-1.44
HMNGLDSVLRNWARQTLASGGENLLGDLTDHVTRLIISEALIMTGGNRTRAAELLGLSRPTLLAKMDKLNL	-1.45
HMLINFPNKLKRLRLANNLTQQELANILETTKQAVSSYESGKSTPSLNSLIKLSEHFNISLDSLVFD	0.183
HMDDPTVILFDPKNGQRKIVKWKAGLTLYSARRSAGISSAAEATIQRAGKSLSGRTATALEPGDVIRW	-0.953
HMFQNPSQVVTTRVGELRAAIPTAQQGRITMGVAVVEDANSVRSVLISTSEPRGYLRPGVTLGPGETMV	0.0203
HMEVKEVDYSAFMTMTEENSISKVEIEENQILFKKKGDDQTTYKTARMDDPALITRLHDQGVDFTGQ	0.0677
HMAHSWEAIRVKLQQIIDEEDKTKPLNDDQIKEKLAEAGIPNLARRTVAKYRKLLNIPTARFRKR	-0.313
HMLEQEDMYGYQMIETLRERSEHSFDLKAGTLYPLLHALEQKGLITARDEASAAGRPRRYYHLTDAG	-0.144
HMTSVFQNSDGTWGHLTKTVNPLIYTIEYGRRTGFSSREEAEESYQRSLTSYQDQLSKLKKERD	0.314

Sequence	soluble fraction (log2)
HMVVVMEKNASSAEIEQVQERLRQAGFKIHLSQGVERTIIGAIGDRSQVDLGFLEALPGVEKVVPIMK	0.0845
HMFEDYNELDEYLETRFIPTYVLLKQRKNANGEIDHFPSIRLQHIMALKLSEAELEHVMNYLKEKNIRVG	-0.325
HMKNISSEEDREKALSLGITQEFIDNKGRYFITVPNKPSNFKEQALNIQKEISEQIDTVINKRFEF	-0.0173
HMQPIQPNQAKYLDGLSSKYKGKGNHSQAAQLTALRDALNAGDHAKAREIYDKLDYEPQAEAAH	0.351
HMVEVPNVSNLTLEQAENKLIQQGLQVKLEGQGEKVVAQIPQPGAVVNKKSTVILF	0.129
HMELDIGKKAIVIEKIDPEAGTGRVRIEGVDWGAKTADSSVIEKGETVVVKAKGAAFVTVAK	0.18
HMSQESIMPNLVGSTEDEAKAIAVEYGFQLNVISRVNNSQYPAGVIIDQNVDEGVRIKAGYPVGVTIS	-0.207
HMNPETLTNSSVIKMSKANLSDELITDMILNSPVKFDLSAGAIKTLESEGVTPAVLESMKNAASK	0.154
HMRRGKLGMASRLEQIPGIGPKKRKALLKAFGNSIDAIKSAPVEDLMKVKGINLVLAESIKEL	0.0167
HMTKQMELLAQGAAKLSVDLNQRQLDQLQTYYRELVDWNQRMNLTAITQYEEVQVKHFLDSL	-0.0986
HMVAGHLQEKNGQFYAVLSYKDTKGKRRTKWVPTGLMVRGNKKRAEAMLNDIRRKFVPPEQED	0.0995
HMLTIEEYLTQLKKLMKDRDAATVRDALSDAEEHLRNAMAGEDPSRLDGIIEEYGSPEEIAAAYKIMEEHT	0.0389
HMATPRLAIVPQSAAGRRLDAVLAELFPEYSRSRLSAWIKTGDVMVDGAAPRGRDPVRGGEEITLTAVQ	-0.033
HMLPAGSDAILRYLSSGAVKGIGVATAARIVEKFGDETLRILEEEPGRLAEIKGITAAKAKAIGEAFAGQ	-0.168
HMGSLVKLQSAAELHQAGRSAEAVPILLEVLATNPRLVDGWEILANALEKLGRLDEALAALKKTVALSPPG	-0.694
HMSELADDPVYTALEKAADKAGLQLTVRILNDLADAVLKRGKKKLTAAQAGKVIARAESELAKSRID	-0.0759
HMETPDLTQLNPILDEYRGQKGAVIPVLQKAQKIYGFLPPEVLRRIAAGMRVPLSKIYGVATFYSQFY	0.0579
HMAQNILPGQKNAIKSLATSAGFSQQELDSYLSQNYGKTLNNLSQKEGASLISGLQDGSIKKP	0.352
HMDSVFGVVTSSDGVKLRKEASTISKVLTVLPYGTEVDVDRIGSEWIRIVTDGGQKGYVSADYLAVREGER	0.206
